Substrate in data set [1]: COc1cccc(OC)c1O
Nature of the data set: purified protein. To be noted: pH 7, O2 as co-substrate, DMP 0-12.5 mM, substrate inhibition at high DMP. In kind it is biochemical, Bacillus subtilis.

Substrate in data set [2]: COc1cccc(OC)c1O
Nature of the data set: purified protein. The class given is biochemical, Shouchella clausii. The settings on record: pH 7 (implied by context), O2 as co-substrate, DMP 0-12.5 mM, substrate inhibition at high DMP.

Our source for the Km values is paper PMC4051777, “Characterization of an Alkali- and Halide-Resistant Laccase Expressed in E. coli: CotA from Bacillus clausii” (PLoS ONE, 2014).

B1: cotA from B. subtilis (Bacillus subtilis subsp. subtilis str. 168) (protein)
chain: MTLEKFVDALPIPDTLKPVQQSKEKTYYEVTMEECTHQLHRDLPPTRLWGYNGLFPGPTIEVKRNENVYVKWMNNLPSTHFLPIDHTIHHSDSQHEEPEVKTVVHLHGGVTPDDSDGYPEAWFSKDFEQTGPYFKREVYHYPNQQRGAILWYHDHAMALTRLNVYAGLVGAYIIHDPKEKRLKLPSDEYDVPLLITDRTINEDGSLFYPSAPENPSPSLPNPSIVPAFCGETILVNGKVWPYLEVEPRKYRFRVINASNTRTYNLSLDNGGDFIQIGSDGGLLPRSVKLNSFSLAPAERYDIIIDFTAYEGESIILANSAGCGGDVNPETDANIMQFRVTKPLAQKDESRKPKYLASYPSVQHERIQNIRTLKLAGTQDEYGRPVLLLNNKRWHDPVTETPKVGTTEIWSIINPTRGTHPIHLHLVSFRVLDRRPFDIARYQESGELSYTGPAVPPPPSEKGWKDTIQAHAGEVLRIAATFGPYSGRYVWHCHILEHEDYDMMRPMDITDPHK
notes: full length, 1542-bp PCR product from genomic DNA in pETM13 (p130), E. coli BL21(DE3); no fusions or tailing amino acids
Take B1: the Km – broadly, the concentration of substrate that gives half-maximal velocity – in the data set “purified protein [1]” amounted to 340 µM.

B2: cotA from B. clausii (Shouchella clausii KSM-K16) (protein)
chain: MELEKFVDPMPIMKTAIPKKTSKDGDYYEIEMKEFSQKLHRDLNPTRLWGYDGQFPGPTIEVMRGKPARIKWMNNLPDTHFLPIDRSIHHVAHEPEVRTVVHLHGSETTPASDGYPEAWFTKDFAEVGSFFEQETYEYPNDQRAATLWYHDHAMGITRLNVYAGLSGLYIIRDPREEQLNLPKGEFDIPLLIQDRSFNDDGSLFYPAQPANPAPNLPNPSVLPFFVGDTILVNGKVWPYLQVEPRKYRFRILNGSNSRSYQLALDSEAPFYQIASDGGLLRRTVSLQAFDIRPAERIEAIIDFSKFEGQTITLKNNASTDATADVMQFQVVLPLSGEDTSIIPQNLSYIPSLQQNDVKRIRNLKISGTTDEYGRPLLLLNNKLWSDPVEEKPCLGTTEIWSFVNVTNVPHPMHIHLVQFQLLDHRAFNVELYNENGQIELVGPTIPPKINERGWKDTITAPAGQITRVIARFAPFSGYYVWHCHILEHEDYDMMRPFVVIDPKTEKERR
notes: full length, codon-optimized gene in pETM13 (p133), E. coli BL21(DE3)
As to B2, in “purified protein [2]”, the Km was 1020 µM.
